Here are results for 17 molecules from CN113480644A (UNIV NANKAI, dated 2021).

Numbering of substitutions follows the chain as printed.

B1: PR301446 (antibody, V domains shown)
VH: QVQLVQSGAEVKKPGASVKISCKTSGYTFTEYTMYWVRQAPGQRLEWMGGINPNQGDTSYNQKFKGRATLTVDKSATTAYMELSSLRSEDTAVYYCARDGYPYYFAMDYWGQGTTVTVSS
VL: DIQMTQSPSSLSASVGDRVTITCKASQNVDTNVAWYQQKPGKAPKGLIYSASSRYSGVPSRFSGSGSGTDFTLTISSVQPEDLATYFCQQYNTYPWTFGQGTKVEIK
B2: PR301558 (antibody, V domains shown)
VH: QVQLVQSGAEVKKPGASVKLSCKASGYSFTSYWVNWVRQAPGQGLEWIGMIHPSDSETRLNQKFKDRVTITVDKSTSTAYMELSSLRSEDTAVYYCARADGYEWYFDVWGRGTLVTVSS
VL: DIVLTQSPASLAVSPGQRATITCRASESVDSYGNSFMHWYQQKPGQPPKLLIYRASNLESGIPARFSGSGSRTDFTLTINPVEANDVANYYCQQSNEDPWTFGQGTKVEIK
B3: PR301556 (antibody, V domains shown)
VH: B2 VH with L20V, I48M, I70M
VL: B2 VL
B4: PR301441 (antibody, V domains shown)
VH: B2 VH with L20V, I48M, I70M
VL: B2 VL with I62V
B5: PR301557 (antibody, V domains shown)
VH: B2 VH
VL: B2 VL with I62V
B6: PR301442 (antibody, V domains shown)
VH: B2 VH
VL: B2 VL with R72G
B7: PR301445 (antibody, V domains shown)
VH: B1 VH with Q55N
VL: B1 VL with S53H
B8: PR301563 (antibody, V domains shown)
VH: B1 VH with Q55N
VL: B1 VL with S53H, V78L
B9: PR301565 (antibody, V domains shown)
VH: B1 VH
VL: B1 VL with S53H, V78L
B10: PR301564 (antibody, V domains shown)
VH: B1 VH with Q55N
VL: B1 VL
B11: PR301444 (antibody, V domains shown)
VH: B1 VH with I20V, Q55N, A68V, L70I
VL: B1 VL with S53H, V78L
B12: PR301566 (antibody, V domains shown)
VH: B1 VH
VL: B1 VL with S53H
B13: PR301447 (antibody, V domains shown)
VH: B1 VH with D99E
VL: B1 VL
B14: PR301567 (antibody, V domains shown)
VH: B1 VH with D99E
VL: B1 VL with S53H, V78L
B15: PR301561 (antibody, V domains shown)
VH: B1 VH with I20V, Q55N, A68V, L70I
VL: B1 VL with S53H
B16: PR301562 (antibody, V domains shown)
VH: B1 VH with I20V, Q55N, A68V, L70I
VL: B1 VL
B17: PR301568 (antibody, V domains shown)
VH: B1 VH with D99E
VL: B1 VL with S53H

One assay deals with T1, SARS-CoV-2(2019-nCoV)Spike Protein(S1 Subunit,His Tag) (SARS-CoV-2 (2019-nCoV), UniProt P0DTC2 16-685).
T1 construct: also called 新冠S蛋白; S蛋白
In words: ELISA, S1-His coated, antibody titrated.
A word on the EC50: it is the concentration needed to bring the measured effect to its halfway point. On to B1, for which it took 0.00943 nM to reach a half-maximal effect (EC50).

In a further assay the target is T1, SARS-CoV-2(2019-nCoV)Spike Protein(S1 …).
Experiment: not given
B2: the 50% effective concentration (EC50) was 0.0405 nM.

With B3, a half-maximal effect (EC50) was put at 0.0272 nM.

B4 showed a 50% effective concentration (EC50) of 0.0154 nM.

The molecule B5 had an EC50 of 0.0438 nM.

The molecule B6 returned a concentration giving a half-maximal response (EC50) of 0.0294 nM.

The molecule B7 had a 50% effective concentration (EC50) of 0.0147 nM.

In turn, B8 had an EC50 of 0.0217 nM.

As to B9, the response was half-maximal at 0.0143 nM (EC50).

In the case of B10, the EC50 was found to be 0.0154 nM.

B11 gave an EC50 of 0.0204 nM.

B12: the concentration for a half-maximal effect (EC50) is 0.0149 nM.

Molecule B13 gave a concentration giving a half-maximal response (EC50) of 2.22 nM.

With B14, the 50% effective concentration (EC50) is 7.54 nM.

Take B15: the 50% effective concentration (EC50) came out at 0.022 nM.

For B16, the midpoint of the response, the EC50, lay at 0.015 nM.

Take B17: the EC50 is 9.41 nM.
